The values below come from US20250170227A1 (published 2025).

Where two headings read alike, the source gives them in different places.

The target in experiment [1] is C1s. Put plainly: C1s activity inhibition.
Experiment [2] addresses C1s. As to the kind of experiment: C1s activity inhibition. This is another data set of the same source.

B1: rC1inh (other)
chain: NPNATSSSSQDPESLQDRGEGKVATTVISKMLFVEPILEVSSLPTTNSTTNSATKITANTTDEPTTQPTTEPTTQPTIQPTQPTTQLPTDSPTQPTTGSFCPGPVTLCSDLESHSTEAVLGDALVDFSLKLYHAFSAMKKVETNMAFSPFSIASLLTQVLLGAGENTKTNLESILSYPKDFTCVHQALKGFTTKGVTSVSQIFHSPDLAIRDTFVNASRTLYSSSPRVLSNNSDANLELINTWVAKNTNNKISRLLDSLPSDTRLVLLNAIYLSAKWKTTFDPKKTRMEPFHFKNSVIKVPMMNSKKYPVAHFIDQTLKAKVGQLQLSHNLSLVILVPQNLKHRLEDMEQALSPSVFKAIMEKLEMSKFQPTLLTLPRIKVTTSQDMLSIMEKLEFFDFSYDLNLCGLTEDPDLQVSAMQHQTVLELTETGVEAAAASAISVARTLLVFEVQQPFLFVLWDQQHKFPVFMGRVYDPRA
Consider B1, for which the IC50 (as a rule, the concentration needed to halve the response being measured) amounted to 1.8 nM with C1s [1] and 1.7 nM with C1s [2].
